Experimental findings from patent publication US12679878B2, “CRF2 receptor agonists and their use in therapy” (SANOFI, priority 2020, dated 2026) are described below.

What all share (experiment): cell-based or functional assay
In experiment [1] the target is T1, CRF1R receptor (anti-target) (UniProt P34998 24-415, limits assumed).
T1 sequence (looked up): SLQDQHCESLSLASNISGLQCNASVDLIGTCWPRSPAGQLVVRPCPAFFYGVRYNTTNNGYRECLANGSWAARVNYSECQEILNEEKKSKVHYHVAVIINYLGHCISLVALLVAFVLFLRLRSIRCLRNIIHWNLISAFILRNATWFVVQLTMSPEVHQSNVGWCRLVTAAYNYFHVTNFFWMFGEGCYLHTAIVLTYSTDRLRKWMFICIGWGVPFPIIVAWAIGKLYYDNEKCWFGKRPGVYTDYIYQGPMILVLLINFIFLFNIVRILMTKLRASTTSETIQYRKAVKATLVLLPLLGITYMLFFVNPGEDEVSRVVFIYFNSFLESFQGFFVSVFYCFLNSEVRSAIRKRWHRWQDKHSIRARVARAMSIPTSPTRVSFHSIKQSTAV

Experiment [2] deals with human corticotropin-releasing factor 2α (CRF2α receptor) (human), Q13324.
In experiment [3] the target is human corticotropin-releasing factor 2α receptor (CRF2α receptor) (human), Q13324.

Starred links: 1 amine or outer side, 2 acyl side, 3 side chain; linkers in the order of their positions; H or OH if unused. Non-standard residues stand in square brackets, D forms with d. Groups on a side chain read outwards from the residue. No end group written: not given here. *: point of attachment. γGlu = O=C(O)[C@H](CCC(=O)[*:2])N[*:1]; Palmitoyl = CCCCCCCCCCCCCCCC(=O)*; Aib = CC(C)(N)C(=O)O

B1: peptide of SEQ ID NO: 220 (peptide)
peptide: IVLSLD[dV]PIGLK([γGlu-Palmitoyl])QILLKQERQKK[Aib]RQQAETNKRILERV-NH2
modifications: N-terminus assumed
SMILES: CCCCCCCCCCCCCCCC(=O)N[C@@H](CCC(=O)NCCCC[C@H](NC(=O)[C@H](CC(C)C)NC(=O)CNC(=O)[C@@H](NC(=O)[C@@H]1CCCN1C(=O)[C@H](NC(=O)[C@H](CC(=O)O)NC(=O)[C@H](CC(C)C)NC(=O)[C@H](CO)NC(=O)[C@H](CC(C)C)NC(=O)[C@@H](NC(=O)[C@@H](N)[C@@H](C)CC)C(C)C)C(C)C)[C@@H](C)CC)C(=O)N[C@@H](CCC(N)=O)C(=O)N[C@H](C(=O)N[C@@H](CC(C)C)C(=O)N[C@@H](CC(C)C)C(=O)N[C@@H](CCCCN)C(=O)N[C@@H](CCC(N)=O)C(=O)N[C@@H](CCC(=O)O)C(=O)N[C@@H](CCCNC(=N)N)C(=O)N[C@@H](CCC(N)=O)C(=O)N[C@@H](CCCCN)C(=O)N[C@@H](CCCCN)C(=O)NC(C)(C)C(=O)N[C@@H](CCCNC(=N)N)C(=O)N[C@@H](CCC(N)=O)C(=O)N[C@@H](CCC(N)=O)C(=O)N[C@@H](C)C(=O)N[C@@H](CCC(=O)O)C(=O)N[C@H](C(=O)N[C@@H](CC(N)=O)C(=O)N[C@@H](CCCCN)C(=O)N[C@@H](CCCNC(=N)N)C(=O)N[C@H](C(=O)N[C@@H](CC(C)C)C(=O)N[C@@H](CCC(=O)O)C(=O)N[C@@H](CCCNC(=N)N)C(=O)N[C@H](C(N)=O)C(C)C)[C@@H](C)CC)[C@@H](C)O)[C@@H](C)CC)C(=O)O
Regarding B1, in experiment [1], the “CRF1/CRF2 ratio (of EC50)” value worked out at 6 and the “CRF1 EC50 (cAMP, HTRF)” value is 8.91 nM. Besides, the EC50 [nM], 0% HSA (cAMP, HTRF) in experiment [2] turned out to be 1.48 nM. In experiment [3], this molecule gave a CRF2 EC50 (cAMP, HTRF) of 1.48 nM.

B2: peptide of SEQ ID NO: 219 (peptide)
peptide: IVLSLD[dV]PIKLK([γGlu-Palmitoyl])QILLKQARQK[Aib]QRAQAEKNKRILERV-NH2
modifications: N-terminus assumed
SMILES: CCCCCCCCCCCCCCCC(=O)N[C@@H](CCC(=O)NCCCC[C@H](NC(=O)[C@H](CC(C)C)NC(=O)[C@H](CCCCN)NC(=O)[C@@H](NC(=O)[C@@H]1CCCN1C(=O)[C@H](NC(=O)[C@H](CC(=O)O)NC(=O)[C@H](CC(C)C)NC(=O)[C@H](CO)NC(=O)[C@H](CC(C)C)NC(=O)[C@@H](NC(=O)[C@@H](N)[C@@H](C)CC)C(C)C)C(C)C)[C@@H](C)CC)C(=O)N[C@@H](CCC(N)=O)C(=O)N[C@H](C(=O)N[C@@H](CC(C)C)C(=O)N[C@@H](CC(C)C)C(=O)N[C@@H](CCCCN)C(=O)N[C@@H](CCC(N)=O)C(=O)N[C@@H](C)C(=O)N[C@@H](CCCNC(=N)N)C(=O)N[C@@H](CCC(N)=O)C(=O)N[C@@H](CCCCN)C(=O)NC(C)(C)C(=O)N[C@@H](CCC(N)=O)C(=O)N[C@@H](CCCNC(=N)N)C(=O)N[C@@H](C)C(=O)N[C@@H](CCC(N)=O)C(=O)N[C@@H](C)C(=O)N[C@@H](CCC(=O)O)C(=O)N[C@@H](CCCCN)C(=O)N[C@@H](CC(N)=O)C(=O)N[C@@H](CCCCN)C(=O)N[C@@H](CCCNC(=N)N)C(=O)N[C@H](C(=O)N[C@@H](CC(C)C)C(=O)N[C@@H](CCC(=O)O)C(=O)N[C@@H](CCCNC(=N)N)C(=O)N[C@H](C(N)=O)C(C)C)[C@@H](C)CC)[C@@H](C)CC)C(=O)O
On to B2, for which, in experiment [1], the “CRF1/CRF2 ratio (of EC50)” value was found to be 2 and the “CRF1 EC50 (cAMP, HTRF)” value turned out to be 13.5 nM. Also, the EC50 [nM], 0% HSA (cAMP, HTRF) in experiment [2] was determined as 5.98 nM. The CRF2 EC50 (cAMP, HTRF) in experiment [3] came out at 5.98 nM.

B3: peptide of SEQ ID NO: 218 (peptide)
peptide: IVLSLD[dV]PIGLK([γGlu-Palmitoyl])QILLKQERQKK[Aib]REQAEKNKRILERV-NH2
modifications: N-terminus assumed
SMILES: CCCCCCCCCCCCCCCC(=O)N[C@@H](CCC(=O)NCCCC[C@H](NC(=O)[C@H](CC(C)C)NC(=O)CNC(=O)[C@@H](NC(=O)[C@@H]1CCCN1C(=O)[C@H](NC(=O)[C@H](CC(=O)O)NC(=O)[C@H](CC(C)C)NC(=O)[C@H](CO)NC(=O)[C@H](CC(C)C)NC(=O)[C@@H](NC(=O)[C@@H](N)[C@@H](C)CC)C(C)C)C(C)C)[C@@H](C)CC)C(=O)N[C@@H](CCC(N)=O)C(=O)N[C@H](C(=O)N[C@@H](CC(C)C)C(=O)N[C@@H](CC(C)C)C(=O)N[C@@H](CCCCN)C(=O)N[C@@H](CCC(N)=O)C(=O)N[C@@H](CCC(=O)O)C(=O)N[C@@H](CCCNC(=N)N)C(=O)N[C@@H](CCC(N)=O)C(=O)N[C@@H](CCCCN)C(=O)N[C@@H](CCCCN)C(=O)NC(C)(C)C(=O)N[C@@H](CCCNC(=N)N)C(=O)N[C@@H](CCC(=O)O)C(=O)N[C@@H](CCC(N)=O)C(=O)N[C@@H](C)C(=O)N[C@@H](CCC(=O)O)C(=O)N[C@@H](CCCCN)C(=O)N[C@@H](CC(N)=O)C(=O)N[C@@H](CCCCN)C(=O)N[C@@H](CCCNC(=N)N)C(=O)N[C@H](C(=O)N[C@@H](CC(C)C)C(=O)N[C@@H](CCC(=O)O)C(=O)N[C@@H](CCCNC(=N)N)C(=O)N[C@H](C(N)=O)C(C)C)[C@@H](C)CC)[C@@H](C)CC)C(=O)O
For B3, in experiment [1], the “CRF1/CRF2 ratio (of EC50)” value was found to be 4 and the “CRF1 EC50 (cAMP, HTRF)” value came out at 6.97 nM. Further, in experiment [2], the EC50 [nM], 0% HSA (cAMP, HTRF) amounted to 1.58 nM. The molecule also gave a CRF2 EC50 (cAMP, HTRF) in experiment [3] of 1.58 nM.
